Measured values as given in article doi:10.1101/2025.03.26.645513v1.

Test system: CC(=O)OC[C@H](N)C(=O)O
Assay: purified protein
Details: 30 mM Na2S, MOPS, 37 °C, no glycerol, cooperative

## NgCysK (Neisseria gonorrhoeae FA 1090)
  K0.5: 1.541 ± 0.306 mM
